First the molecules themselves.
B1: VEGFR3 (receptor, human, UniProt P35916 25-1363, looked up)
chain: YSMTPPTLNITEESHVIDTGDSLSISCRGQHPLEWAWPGAQEAPATGDKDSEDTGVVRDCEGTDARPYCKVLLLHEVHANDTGSYVCYYKYIKARIEGTTAASSYVFVRDFEQPFINKPDTLLVNRKDAMWVPCLVSIPGLNVTLRSQSSVLWPDGQEVVWDDRRGMLVSTPLLHDALYLQCETTWGDQDFLSNPFLVHITGNELYDIQLLPRKSLELLVGEKLVLNCTVWAEFNSGVTFDWDYPGKQAERGKWVPERRSQQTHTELSSILTIHNVSQHDLGSYVCKANNGIQRFRESTEVIVHENPFISVEWLKGPILEATAGDELVKLPVKLAAYPPPEFQWYKDGKALSGRHSPHALVLKEVTEASTGTYTLALWNSAAGLRRNISLELVVNVPPQIHEKEASSPSIYSRHSRQALTCTAYGVPLPLSIQWHWRPWTPCKMFAQRSLRRRQQQDLMPQCRDWRAVTTQDAVNPIESLDTWTEFVEGKNKTVSKLVIQNANVSAMYKCVVSNKVGQDERLIYFYVTTIPDGFTIESKPSEELLEGQPVLLSCQADSYKYEHLRWYRLNLSTLHDAHGNPLLLDCKNVHLFATPLAASLEEVAPGARHATLSLSIPRVAPEHEGHYVCEVQDRRSHDKHCHKKYLSVQALEAPRLTQNLTDLLVNVSDSLEMQCLVAGAHAPSIVWYKDERLLEEKSGVDLADSNQKLSIQRVREEDAGRYLCSVCNAKGCVNSSASVAVEGSEDKGSMEIVILVGTGVIAVFFWVLLLLIFCNMRRPAHADIKTGYLSIIMDPGEVPLEEQCEYLSYDASQWEFPRERLHLGRVLGYGAFGKVVEASAFGIHKGSSCDTVAVKMLKEGATASEHRALMSELKILIHIGNHLNVVNLLGACTKPQGPLMVIVEFCKYGNLSNFLRAKRDAFSPCAEKSPEQRGRFRAMVELARLDRRRPGSSDRVLFARFSKTEGGARRASPDQEAEDLWLSPLTMEDLVCYSFQVARGMEFLASRKCIHRDLAARNILLSESDVVKICDFGLARDIYKDPDYVRKGSARLPLKWMAPESIFDKVYTTQSDVWSFGVLLWEIFSLGASPYPGVQINEEFCQRLRDGTRMRAPELATPAIRRIMLNCWSGDPKARPAFSELVEILGDLLQGRGLQEEEEVCMAPRSSQSSEEGSFSQVSTMALHIAQADAEDSPPSLQRHSLAARYYNWVSFPGCLARGAETRGSSRMKTFEEFPMTPTTYKGSVDNQTDSGMVLASEEFEQIESRHRQESGFSCKGPGQNVAVTRAHPDSQGRRRRPERGARGGQVFYNSEYGELSEPSEEDHCSPSARVTFFTDNSY
notes: Endogenous protein in HUVEC lysates, with or without VEGF treatment (20 ng/ml, 10 min)

In assay [1] the target is T1, leukocyte antigen-related protein tyrosine phosphatase (LAR) (human, UniProt P10586 30-1907, limits assumed).
T1 construct: Endogenous protein in HUVEC lysates; The background section describes LAR as a non-covalent complex of a 150-kDa E subunit and an 85-kDa P subunit, cleaved from a 200-kDa proprotein; In the functional assays, full-length human LAR was overexpressed from adenovirus (AdLAR) or knocked down with siRNA; also called LAR PTP; leukocyte antigen-related (LAR) PTP
Put plainly: co-immunoprecipitation from HUVEC lysates with anti-cLAR antibody, Western blot with anti-VEGFR3. As for the experimental part:
(§1) C, Lysates from HUVECs stimulated with or without VEGF (20 ng/ml) for 10 min were immunoprecipitated with polyclonal antibodies against anti-cLAR or control goat IgG, followed by immunoblotting with anti-VEGFR2 (top), VEGFR3 (middle) or anti-cLAR antibody (bottom). D, Equal amounts of GST or GST-cLAR fusion protein were immobilized on glutathione-Sepharose beads and then incubated with HUVEC lysates containing equal amount of protein. GST or GST-cLAR-associated proteins were analyzed by Western blotting using anti-IGF-1Rβ antibody. The same membrane was reprobed with anti-GST antibody (E), anti-VEGFR2 (F, top) or anti-VEGFR3 (F, bottom) antibodies.
(A western blot detects proteins with antibodies after separation by electrophoresis.)

The assay “VEGFR3” concerns the target B1. Put plainly: GST pulldown from HUVEC lysates, Western blot with anti-VEGFR3. As for the experimental part:
as §1

The next assay concerns the target T2, VEGFR2 (human, UniProt P35968 20-1356).
T2 construct: Endogenous protein in HUVEC lysates, with or without VEGF treatment (20 ng/ml, 10 min)
In words: GST pulldown from HUVEC lysates, Western blot with anti-VEGFR2. The procedure: as §1

T2 sequence (P35968 20-1356 limits assumed): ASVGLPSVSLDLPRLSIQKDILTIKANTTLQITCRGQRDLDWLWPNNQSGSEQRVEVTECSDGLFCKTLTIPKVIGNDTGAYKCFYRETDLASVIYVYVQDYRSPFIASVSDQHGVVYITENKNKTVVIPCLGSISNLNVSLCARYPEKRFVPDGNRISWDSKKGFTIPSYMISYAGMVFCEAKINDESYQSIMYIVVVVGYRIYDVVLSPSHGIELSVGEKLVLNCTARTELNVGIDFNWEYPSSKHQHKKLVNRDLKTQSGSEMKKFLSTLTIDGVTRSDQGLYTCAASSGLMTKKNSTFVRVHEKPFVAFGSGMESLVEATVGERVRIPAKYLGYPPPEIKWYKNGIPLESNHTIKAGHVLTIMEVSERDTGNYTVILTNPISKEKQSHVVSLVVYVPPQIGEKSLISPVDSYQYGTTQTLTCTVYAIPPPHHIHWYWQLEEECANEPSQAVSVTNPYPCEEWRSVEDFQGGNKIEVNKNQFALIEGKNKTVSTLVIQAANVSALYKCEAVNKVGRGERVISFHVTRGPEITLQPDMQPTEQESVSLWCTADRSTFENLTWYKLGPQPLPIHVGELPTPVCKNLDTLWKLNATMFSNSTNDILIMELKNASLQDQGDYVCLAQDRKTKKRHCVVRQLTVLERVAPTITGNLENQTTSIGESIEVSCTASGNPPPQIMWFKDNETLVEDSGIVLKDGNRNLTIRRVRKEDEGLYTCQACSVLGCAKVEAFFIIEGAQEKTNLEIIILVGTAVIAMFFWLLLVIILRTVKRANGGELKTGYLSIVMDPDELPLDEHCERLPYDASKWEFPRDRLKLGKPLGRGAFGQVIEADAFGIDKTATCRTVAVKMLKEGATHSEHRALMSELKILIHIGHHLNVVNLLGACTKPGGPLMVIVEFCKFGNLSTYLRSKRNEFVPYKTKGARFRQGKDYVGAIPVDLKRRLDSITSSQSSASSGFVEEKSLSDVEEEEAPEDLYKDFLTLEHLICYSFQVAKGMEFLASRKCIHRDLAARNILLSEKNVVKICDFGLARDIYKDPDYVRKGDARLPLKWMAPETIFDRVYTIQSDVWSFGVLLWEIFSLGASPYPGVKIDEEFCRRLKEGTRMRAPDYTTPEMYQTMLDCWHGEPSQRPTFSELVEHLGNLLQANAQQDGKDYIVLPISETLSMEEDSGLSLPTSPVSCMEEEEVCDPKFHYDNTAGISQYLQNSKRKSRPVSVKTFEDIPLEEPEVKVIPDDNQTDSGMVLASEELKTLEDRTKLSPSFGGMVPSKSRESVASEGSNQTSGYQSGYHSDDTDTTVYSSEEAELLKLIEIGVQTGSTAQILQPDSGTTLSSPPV

As for B1, the binding result in assay [1] is on record as “no binding”.

B2: GST-cLAR fusion protein (other, UniProt P10586 1285-1907, looked up)
chain: KRKRTHSPSSKDEQSIGLKDSLLAHSSDPVEMRRLNYQTPGMRDHPPIPITDLADNIERLKANDGLKFSQEYESIDPGQQFTWENSNLEVNKPKNRYANVIAYDHSRVILTSIDGVPGSDYINANYIDGYRKQNAYIATQGPLPETMGDFWRMVWEQRTATVVMMTRLEEKSRVKCDQYWPARGTETCGLIQVTLLDTVELATYTVRTFALHKSGSSEKRELRQFQFMAWPDHGVPEYPTPILAFLRRVKACNPLDAGPMVVHCSAGVGRTGCFIVIDAMLERMKHEKTVDIYGHVTCMRSQRNYMVQTEDQYVFIHEALLEAATCGHTEVPARNLYAHIQKLGQVPPGESVTAMELEFKLLASSKAHTSRFISANLPCNKFKNRLVNIMPYELTRVCLQPIRGVEGSDYINASFLDGYRQQKAYIATQGPLAESTEDFWRMLWEHNSTIIVMLTKLREMGREKCHQYWPAERSARYQYFVVDPMAEYNMPQYILREFKVTDARDGQSRTIRQFQFTDWPEQGVPKTGEGFIDFIGQVHKTKEQFGQDGPITVHCSAGVGRTGVFITLSIVLERMRYEGVVDMFQTVKTLRTQRPAMVQTEDQYQLCYRAALEYLGSFDHYAT
notes: domain: cytoplasmic LAR (cLAR); The fusion was immobilized on glutathione-Sepharose beads and incubated with HUVEC lysates; not shown: Glutathione-S-transferase (GST) tag
Regarding B2, the binding result with VEGFR3 and with VEGFR2 was “no binding” in each case.
